# Data as given in the nanobody polyreactivity screen of Harvey et al. (2022).
# Assay: yeast display, Sf9 membrane polyspecificity reagent, FACS + sequencing; frameworks hold sequencing errors
# In short: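 After 36–48 hours of galactose induction, yeast (Saccharomyces cerevisiae BJ5465) displaying a synthetic nanobody library were stained at 4 °C for 1 hour with 10% biotinylated, detergent-solubilized Sf9 membrane reagent. Streptavidin microbeads enriched the stained cells before FACS sorting into low and high (top ~1%) gates on anti-HA and streptavidin fluorescence. Each clone's polyreactivity label reflects its gate of origin.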
row,Sequence,polyreactivity (PSR sort gate)
1,QVQLVESGGGLVQAGGSLRLSCAASGFTFGPYAMGWYRQAPGNEMELVAGITWSGASTYYADSVKGRFTISRDNAKNTVYLQMNSLNPEDSAVYYCARYYRLVSRYDYWGQGRQVTVSS,low polyreactivity
2,QVQLVESGGGLVQAGGSLRLSCAASGFTFGPYVKGWYRQAPGKERELVAAISKSGGSTYYADSVKGRFTISRDYAKNTVYLQMNSLKPEDTAVYYCATDYLGGGKRYYYWGQGTQVTVSS,high polyreactivity
3,QVQLVESGGGLVQAGGSLRLSCAASGFTFGQYAMGWYRQAPGKERELVAAIRWSGGSSYYADSVKGRFTISRDNAKNTVYLQMNSLKPEDTAVYYCAARRFDGYEYDYWGQGTQVTVSS,low polyreactivity
4,QVQLVESGGGLVQAGGSLRLSCAASGFTFGQYAMGWYRQAPGKERELVAAITGSGGRTYYADSVKGRFTISRDNAKNTVYLQMNSLKPEDTAVYYCNARVPLRHYSNYYWGQGTQVTVSS,high polyreactivity
5,QVQLVESGGGLVQAGGSLRLSCAASGFTFGRNAMGWYRQEPGKERELVATISKSGGSTYYADSVKGRFTISRDNAKNTVYVQMNSLKPEDTAVYYCADRSRRLPGDYWGQGTQVTVSS,low polyreactivity
6,QVQLVESGGGLVQAGGSLRLSCAASGFTFGRTVRGWYRQAPGKERELVAAISSSGGSTYYADSVKGRFTISRDNAKNTVYLQMNSLKPEDTAVYYCAAVLVSWYRNPQYDYWGQGTQVTVSS,high polyreactivity
7,QVQLVESGGGLVQAGGSLRLSCAASGFTFGRYALGWYRQAPGKERELVAAISFSGGRTYYADSVKGRFTISRDKAKNTVYLQMNSLKPEDTAVYYCAARRRQEHVGRSSYARYDYWGQGTQVTVSS,high polyreactivity
8,QVQLVESGGGLVQAGGSLRLSCAASGFTFGRYAMGWYRQAPGKERELVAGISSGGRTNYADSVKGRFTISRDNAKNTVYLQMNSLKPEDTAVYYCNARWYRYPPRVRLYYWGQGTQVTVSS,high polyreactivity
9,QVQLVESGGGLVQAGGSLRLSCAASGFTFGSNAMGWYRQAPGKERELVAAISYSGTRTYYADSVKGRFTISRDNAKNTVYLQMNRLKPEDTAVNYCAAGFRKTQFNVRYDYWGQGTQVTVSS,high polyreactivity
10,QVQLVESGGGLVQAGGSLRLSCAASGFTFGSNAMGWYRQAPGKERELVAAITWDGGSTYYADSVKGRFTISRDNAKNTVYLQMNSLKPEDTAVYYCARYLYATYGKYNYWGQGTQVTVSS,high polyreactivity
11,QVQLVESGGGLVQAGGSLRLSCAASGFTFGSNTMGWYRQAPGKERELVAAITTSGDSTYYADSVKGRFTISRDHAKNTVYLQMNSLKPEDTAVYYCAAERRYGRYYRLVRLLGQGTQVTVSS,high polyreactivity
12,QVQLVESGGGLVQAGGSLRLSCAASGFTFGSNTMGWYRQAPGKERELVAAITYTGGRTYYADSVKGRFTISRDNAKNTVYLQMNSLKPEDTAVYYCAAEYHFWSYSPGYDYWGQGTQVTVSS,high polyreactivity
13,QVQLVESGGGLVQAGGSLRLSCAASGFTFGSNVMGWYRQAPGKERELVAAIRGRGGSTYSADSVKGRFTISRDNAKNTVYLQMNSLKPEDTAVYYCNAVQRYQMGYCGQGTQVTVSS,high polyreactivity
14,QVQLVESGGGLVQAGGSLRLSCAASGFTFGSYAMGWYRQAPGKEREFVAAIRRSGSSTYYADSVKGRFTISRDYAKNTVYLQMNSLKPEDTAVYYCAADVYRRLRRYRYYYWGQGTQVTVSS,low polyreactivity
15,QVQLVESGGGLVQAGGSLRLSCAASGFTFGSYAMGWYRQAPGKERELVARISSDGSTNYAVSVNGRFTISRDNAKNTVYLQMNSLKPEDTAVYYCAADPVHRFPGTGGYWGQGTQVTVSS,low polyreactivity
16,QVQLVESGGGLVQAGGSLRLSCAASGFTFGSYAMGWYRQAPGKERELVAVITRSGRTNYADSVKGRFTISRDNAKNTVYLLMNSLKPEDTAVYYCNADDVDDEVSPDLTEMDYWGQGTQVTVSS,low polyreactivity
17,QVQLVESGGGLVQAGGSLRLSCAASGFTFGSYAMGWYRQAPGKERELVAVITRSGRTNYADSVKGRFTISRDNAKNTVYLQMNSLKPEDTAVYYCNADDVDDEVSPDLTEMDYWGQGTQVTVSS,low polyreactivity
18,QVQLVESGGGLVQAGGSLRLSCAASGFTFGSYAMGWYRQAPGTERELVAAISCSGGSTYYADSVKGRFTISRDNAKNTVYLQMNSLKPEDTAVYYCAVRYPLYRMDYWGQGTQVTVSS,high polyreactivity
19,QVQLVESGGGLVQAGGSLRLSCAASGFTFGTNAMGWYRQAPGKEMELVAAITWSGGRTYYADSVKGRFTISRDNAKNTVYLQMNSRKQEDTAVYYCAKQYYRNKYEYWGQGTQVTVSS,high polyreactivity
20,QVQLVESGGGLVQAGGSLRLSCAASGFTFGTYAMGWYRPAPGKERELVAAITRRGDNTYYADSVKGRFTISRDNAKNTVYLQMNSLNPEDTAVYYCIAAKGGRYPDYDYWGQGTQVTVSS,high polyreactivity
21,QVQLVESGGGLVQAGGSLRLSCAASGFTFGTYAMGWYRQAPGKERELVASIRTDDSTYADSVKGRFTISRDNAKNTVYLQMNSLKPEDTAVYYCAVDGYVIYVYDTYDYWGQGTQVTVSS,low polyreactivity

row,Sequence,polyreactivity (PSR sort gate)
1,QVQLVESGGGLVQAGGSLRLSCAASGFTFGVYAMGWYRQAPGKERDLVAAISTTVGSTYYADSVKGRFTISRDNAKNTVYLQMNSLKPEDTAVDYCAAEYTGYINYYIYEYWGQGTQVTVSS,low polyreactivity
2,QVQLVESGGGLVQAGGSLRLSCAASGFTFGVYAMGWYRQAPGKERELDAAISTTVGSTYYADSVKGRFTISRDNAKNTVYLQMNSLKPEDTAVYYCAAEYTGYINYYIYEYWGQGTQVTVSS,low polyreactivity
3,QVQLVESGGGLVQAGGSLRLSCAASGFTFGYNAMGWYRQAPGKERELVAAISRSGGRTYYADSVKGRFTISRDNAKNTVYLQMNSLKPEDTAVYYCARRYRDYGRYGYWGQGTQVTVSS,high polyreactivity
4,QVQLVESGGGLVQAGGSLRLSCAASGFTFGYNAMGWYRQAPGKERELVAAITSGGSTNYADSVKGRFTISRDNAKNTVYLQMNSLKPEDTAVYYCATGVRPWRKKPVEFYHRGQGTQVTVSS,low polyreactivity
5,QVQLVESGGGLVQAGGSLRLSCAASGFTFGYNAMGWYRQAPGKERELVAVINKSGGSTYYADSVKGRFTISRDNAKNTVYLQMNSLKPEDTAVYYCAATYNGWKRYYYWGQGTQVTVSS,high polyreactivity
6,QVQLVESGGGLVQAGGSLRLSCAASGFTFGYYAMGWSRQAPGKERELVAAISWSGSRTYYADSVKGRFTISRDNAKNTVYLQMNSLKPEDTAVYYCAAQRYRYLYTSTGWQRYDYYYWGQGTQVTVSS,high polyreactivity
7,QVQLVESGGGLVQAGGSLRLSCAASGFTFGYYAMGWYRQAPGKERELVAAINWSGVNTNYADSVKGRFTISRDNEKNTVYLQMNSLKPEDTAVYYCAADAGYDGYGYWGQGTQVTVSS,low polyreactivity
8,QVQLVESGGGLVQAGGSLRLSCAASGFTFGYYAMGWYRQAPGKERELVAAISSSGGSTYYADSVKGRFTISRDNAKNTVYLQMNSLKQEDTAVYYCSTGFLQNYYKYSSSFRFYYWGQGTQVTVSS,high polyreactivity
9,QVQLVESGGGLVQAGGSLRLSCAASGFTFGYYAMGWYRQAPGKERELVASISSGGSTNYADSVKGRFTISRDNAKNTVYLQMNSLKPEDTAVYYCNKRAYYGRYDYWGQGTQVTVSS,high polyreactivity
10,QVQLVESGGGLVQAGGSLRLSCAASGFTFGYYAMGWYRQAPRKERELVAAISSSSGRTHYADSVKGRFTISRDNAKNTVYLQMNSLKPEDTAVYYCAAEFYYLYYYWGQGTQVTVSS,high polyreactivity
11,QVQLVESGGGLVQAGGSLRLSCAASGFTFHGYTMGWYRQAPGKERELVAAITSGGGTNYADSVKGRFTISRVNAKNTVYLQKNSLKPEDTAVYYCAAVGTVPRKQRYHSYIDYDYWGQGTQVTVSS,low polyreactivity
12,QVQLVESGGGLVQAGGSLRLSCAASGFTFHNNVMGWYRQATGKERELVATISKSGGSTYYADSVKGRFTISRDNAKNTVYLQMNSLKPEDTAVYYCARRYRDYDYWGQGTQVTVSS,high polyreactivity
13,QVQLVESGGGLVQAGGSLRLSCAASGFTFHRYAMGWYRQAPGKERELVAAISSRGGSTYYADSVKGRFTISRDNAKNTVYLQMNSLKPEDTAVYYCAARWPHRYYSSYYGYDYWGQGTQVTVSS,high polyreactivity
14,QVQLVESGGGLVQAGGSLRLSCAASGFTFHTYAMGWYRQAPGKERELVAAIDSSGGITYYADSVKGRFTISRDTAKNTVYLQMNSLKPEDTAVYYCAAVFLLFGFEWSYDYWGQGTQVTVSS,low polyreactivity
15,QVQLVESGGGLVQAGGSLRLSCAASGFTFHYNAMGWYRQAPGKERELVAAITSGGSTYYADSVKGRFTISRDNAKNTVYLQMNSLKPEDTAVYYCNKLYYRYHHNYDYWGQGTQVTVSS,high polyreactivity
16,QVQLVESGGGLVQAGGSLRLSCAASGFTFIDYAMGWSRQAPGKERELVAAITRDGGSTYYADSVKGRFTISRDNANNTVYLQMNRLKPEDTAVYYCATVRRVQHWVWYWLWRYDYWGQGTQVTVSS,high polyreactivity
17,QVQLVESGGGLVQAGGSLRLSCAASGFTFIFNAMGWYREAPGKERELVAAITWGGASTDYADSVKGRFTISRDNAKNTVNLQMKSLKPEDTAVYYCAKDNWDNPRPTSEMDYWGQGTQVTVSS,low polyreactivity
18,QVQLVESGGGLVQAGGSLRLSCAASGFTFIGYAMGWNRQAPGKERELVADITYSGSSTYYADSVKGRFTISRDNAKNTVYFQMNSLKPEDTAVYYCAAEAYYYWFDVVYWGQGSQVTVSS,low polyreactivity
19,QVQLVESGGGLVQAGGSLRLSCAASGFTFIGYAMGWSRPAPGKERELVAAITWRGGRTYYADSVKGRFSISRDNAKNTVYLQMNSLKTEETAVYYCAADGYTVGNSYYWGHGTQVTVSS,high polyreactivity
20,QVQLVESGGGLVQAGGSLRLSCAASGFTFIGYAMGWYRQAPGKERELVAAITQSGGSTFYADSVKGRFTISRDNAKNTVYLQMNSLKPEDTAVYYCNAYRKFRYWGQGTQVTVSS,low polyreactivity
